These results are taken from patent publication US20220002426A1 (BIOINVENT INTERNATIONAL, published 2022).

Experiment [1] has as its target T1, hTNFRII (Sinobioologicals Cat nr10414-H08H) (human, UniProt P20333 23-257).
T1 construct: bought; also called immobilized TNFR2
T1 sequence (looked up): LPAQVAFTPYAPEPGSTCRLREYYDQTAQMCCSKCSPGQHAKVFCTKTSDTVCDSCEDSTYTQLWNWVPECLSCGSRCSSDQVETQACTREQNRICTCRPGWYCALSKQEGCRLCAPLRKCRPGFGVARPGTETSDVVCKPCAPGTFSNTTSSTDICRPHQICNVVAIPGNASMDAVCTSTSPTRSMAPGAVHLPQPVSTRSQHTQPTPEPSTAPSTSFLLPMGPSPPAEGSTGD
The experiment in a line: blocking ELISA, coated hTNFRII, competitor hTNF-α-bio 5 nM. How it is done:
96-well plates were coated with hTNFRII (Sinobioologicals Cat nr10414-H08H) or mTNFRII (Sinobioologicals Cat No. 50128 M08H) at 2.5 pmol/well in ELISA coating buffer (0.1 M sodium carbonate pH 9.5) and incubated overnight at 4° C. After washing in ELISA wash buffer (PBS with 0.05% Tween20), the plates were incubated under slow agitation for 1 h in room temperature with n-CoDeR® mAbs at 10 μg/ml (one-dose ELISA) or 33 nM and subsequent 1:2 dilutions (titration ELISA) in block buffer containing 0.45% fish gelatin. […] Thereafter, plates were washed. For the human ELISAs, Streptavidin-HRP (Jackson Cat No. 016-030-084) diluted 1:2000 in block buffer were added and again incubated for 1 h at room temperature followed by washes first in ELISA buffer and then in Tris buffer (pH 9.8). The substrate (Super Signal ELISA Pico from Thermo Scientific Cat. No. 37069) were thereafter diluted according to the manufacturers instruction, added to the wells and incubated in darkness for 10 min before reading in a Tecan Ultra. […] After washing, anti-Rabbit-HRP diluted 1:10 000 in block buffer was added and again incubated for 1 h at room temperature. Substrate adding and reading were performed as above.
On the technique in general: An ELISA detects its analyte on a solid surface through an enzyme-linked reagent.

Experiment [2] concerns the target T2, wild type, full length human TNFR2 (on cells) (human, UniProt P20333 23-461).
T2 construct: whole, on cells; also called hTNFR2; TNFRII
T2 sequence (looked up): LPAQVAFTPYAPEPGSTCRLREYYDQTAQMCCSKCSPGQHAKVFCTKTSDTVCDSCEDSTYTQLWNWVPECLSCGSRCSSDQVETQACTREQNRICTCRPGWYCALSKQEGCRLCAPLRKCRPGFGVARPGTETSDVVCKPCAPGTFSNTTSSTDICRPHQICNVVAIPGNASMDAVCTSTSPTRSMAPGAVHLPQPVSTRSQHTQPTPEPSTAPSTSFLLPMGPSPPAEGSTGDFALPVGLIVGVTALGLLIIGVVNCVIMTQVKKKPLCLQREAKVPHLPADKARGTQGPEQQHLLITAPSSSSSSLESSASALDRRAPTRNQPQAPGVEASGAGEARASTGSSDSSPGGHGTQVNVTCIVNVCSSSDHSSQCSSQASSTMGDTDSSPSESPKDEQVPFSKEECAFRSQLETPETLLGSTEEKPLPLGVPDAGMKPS
Kind of experiment: FACS, activated CD4+ T cells. The protocol: The ability and affinity of TNFR2 n-CoDeR® antibodies to bind TNFR2 expressed on cells were obtained using in vitro activated CD4⁺ T cells. Human CD4⁺ T cells were stimulated with 50 ng/ml rhIL-2 (R&D systems) and Dynabeads® T-Activator CD3/CD28 for T-Cell Expansion and Activation (Gibco) 2-3 days at 37 degrees. […] Cells were then incubated with an APC conjugated a-human IgG secondary ab (Jackson) followed by analysis by flow cytometry (FACSVerse, BD).
(In general: Flow cytometry measures light scatter and fluorescence of single cells or particles in a stream.)

For experiment [3], the target named is T3, recombinant human TNFR2-Fc protein (Sino Biological) (human, UniProt P20333 23-257, limits assumed).
T3 construct: bought; also called human TNFR2 protein; not shown: Fc part of the bought fusion protein; not described
T3 sequence (looked up): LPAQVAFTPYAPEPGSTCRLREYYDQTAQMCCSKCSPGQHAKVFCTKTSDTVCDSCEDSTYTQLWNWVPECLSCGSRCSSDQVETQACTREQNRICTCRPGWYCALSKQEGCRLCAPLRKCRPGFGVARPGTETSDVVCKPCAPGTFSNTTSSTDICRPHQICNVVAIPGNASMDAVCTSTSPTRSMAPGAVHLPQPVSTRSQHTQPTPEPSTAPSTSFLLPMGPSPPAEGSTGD
Kind of experiment: ELISA, coated TNFR2-Fc. The protocol:
96-well plates (Lumitrac 600 LIA plate, Greiner) were coated overnight at 4° C. with recombinant human or mouse TNFR2-Fc protein (Sino Biological) at 1 pmol/well. After washing, titrated doses of anti-TNFR2 mAbs from 20 μg/ml to 0.1 ng/ml (133 nM to 1 pM) were allowed to bind for 1 hour. Plates were then washed again, and bound antibodies were detected with an anti-human-F(ab)-HRP secondary antibody (Jackson ImmunoResearch) diluted in 50 ng/ml. Super Signal ELISA Pico (Thermo Scientific) was used as substrate and the plates were analyzed using Tecan Ultra Microplate reader.

B1: 001-B11 (antibody, V domains shown)
VH: EVQLLESGGGLVQPGGSLRLSCAASGFTFSSYSMNWVRQAPGKGLEWVAVMSYDEYNTYYADSVKGRFTISRDNSKNTLYLQMNSLRAEDTAVYYCAKGFYGDYPLWDYWGQGTLVTVSS
VL: not shown
notes: IgG
B1: the EC50 (as a rule, the concentration at which the effect is half-maximal) in experiment [1] was 1 nM; in experiment [2], 27 nM; in experiment [3] it was 0.25 nM.

B2: 001-A09 (antibody, V domains shown)
VH: EVQLLESGGGLVQPGGSLRLSCAASGFTFSSNYMSWVRQAPGKGLEWVSVISGSGGSTYYADSVKGRFTISRDNSKNTLYLQMNSLRAEDTAVYYCARDRGWFDPWGQGTLVTVSS
VL: QSVLTQPPSASGTPGQRVTISCSGSRSNIDNSYVSWYQQLPGTAPKLLIYRNNQRPSGVPDRFSGSKSGTSASLAISGLRSEDEADYYCATWDDSLSGPVFGGGTKLTVLG
notes: IgG
For B2, the concentration giving a half-maximal response (EC50) in experiment [2] was 48 nM; in experiment [3] it was 4.4 nM.

B3: 001-D01 (antibody, V domains shown)
VH: not shown
VL: QSVLTQPPSASGTPGQRVTISCSGSSSNIGSNTVNWYQQLPGTAPKLLIYGNSNRPSGVPDRFSGSKSGTSASLAISGLRSEDEADYYCQSYDSSLSASVFGGGTKLTVLG
notes: IgG
For the molecule B3, the figures for the EC50 in experiment [1], in experiment [2] and in experiment [3] were 1.4 nM, 3.9 nM and 0.37 nM, respectively.

B4: 005-F10 (antibody, V domains shown)
VH: EVQLLESGGGLVQPGGSLRLSCAASGFTFSDYYMTWIRQAPGKGLEWVSGISGSGGYIHYADSVKGRFTISRDNSKNTLYLQMNSLRAEDTAVYYCAREGLLPDAFDIWGQGTLVTVSS
VL: not shown
notes: IgG
As to B4, the EC50 in experiment [1] stood at 0.03 nM; in experiment [2], 32 nM; in experiment [3], 0.22 nM.

B5: 004-E08 (antibody, V domains shown)
VH: EVQLLESGGGLVQPGGSLRLSCAASGFTFSRYWMHWVRQVPGKGLEWVSGISDSGVVTYYADSVKGRFTISRDNSKNTLYLQMNSLRAEDTAVYYCARAQSVAFDIWGQGTLVTVSS
VL: QSVLTQPPSASGTPGQRVTISCSGSSSNIGAGHDVHWYQQLPGTAPKLLIYYDDLLPSGVPDRFSGSKSGTSASLAISGLRSEDEADYYCAAWDDSLSGWVFGGGTKLTVLG
notes: IgG
With B5, the EC50 in experiment [2] amounted to 2.3 nM; in experiment [3], 0.38 nM.

B6: 001-B05 (antibody, V domains shown)
VH: EVQLLESGGGLVQPGGSLRLSCAASGFTFSNAWMSWVRQAPGKGLEWVSSISSASGYIYYGDSVKGRFTISRDNSKNTLYLQMNNLRAEDTAVYYCARGTLYGDFDEFWGQGTLVTVSS
VL: QSVLTQPPSASGTPGQRVTISCSGSSSNIGNNAVNWYQQLPGTAPKLLIYGNTNRPSGVPDRFSGSKSGTSASLAISGLRSEDEADYYCQSYDSSLSGYVVFGGGTKLTVLG
notes: IgG
In the case of B6, the values for the EC50 in experiment [2] and in experiment [3] were 1.5 nM and 0.23 nM, respectively.

B7: 001-C05 (antibody, V domains shown)
VH: EVQLLESGGGLVQPGGSLRLSCAASGFTFSSNEMSWIRQAPGKGLEWVSVIYSGGSTYYADSVKGRFTISRDNSKNTLYLQMNSLRAEDTAVYYCARREGWLVPFDYWGQGTLVTVSS
VL: QSVLTQPPSASGTPGQRVTISCSGSSSNIGSNTVNWYQQLPGTAPKLLIYGNIIRPSGVPDRFSGSKSGTSASLAISGLRSEDEADYYCQSFDTTLSGSIVFGGGTKLTVLG
notes: IgG
Consider B7, for which the results for the EC50 in experiment [2] and in experiment [3] were 12 nM and 0.38 nM, respectively.

B8: 001-B09 (antibody, V domains shown)
VH: EVQLLESGGGLVQPGGSLRLSCAASGFTFSRHAMNWVRQAPGKGLEWVSSISTGSSYIDYADSVKGRFTISRDNSKNTLYLQMNSLRAEDTAVYYCAREKGHYYYGMDVWGQGTLVTVSS
VL: QSVLTQPPSASGTPGQRVTISCTGSSSNIGAGYDVHWYQQLPGTAPKLLIYGNSYRPSGVPDRFSGSKSGTSASLAISGLRSEDEADYYCQSYDTSLSAYVVFGGGTKLTVLG
notes: IgG
Take B8: the EC50 in experiment [2] stood at 29 nM; in experiment [3] it was 0.18 nM.

B9: 001-C08 (antibody, V domains shown)
VH: EVQLLESGGGLVQPGGSLRLSCAASGFTFSNAWMSWVRQAPGKGLEWVSGISSSGSSAYYADSVKGRFTISRDNSKNTLYLQMNSLRAEDTAVYYCARHYYYHIAGYYYDTFDIWGQGTLVTVSS
VL: not shown
notes: IgG; also called 1-008
Take B9: the EC50 turned out to be 1.1 nM in experiment [1], 2.6 nM in experiment [2] and 0.082 nM in experiment [3].
